Data on four molecules can be found in US20230331821A1 (VIR BIOTECHNOLOGY, published 2023).

The target of experiment [1] is T1, SARS-CoV-1 RBD (Sino Biological) (SARS-CoV-1, UniProt P59594 306-527). Kind of experiment: ELISA, antigen coated on the plate, OD 405 nm. On the technique in general: In an ELISA, binding on a coated surface is turned into a signal by an enzyme label.
Experiment [2] deals with T2, SARS-CoV-2 Spike (S) protein, strain BetaCoV/Wuhan-Hu-1/2019, full length (SARS-CoV-2 Wuhan-Hu-1, UniProt P0DTC2 14-1273). Kind of experiment: flow cytometry, ExpiCHO cells expressing SARS-CoV-2 S; % positive cells. In general terms: Flow cytometry measures light scatter and fluorescence of single cells or particles in a stream.
For experiment [3], the target named is T2, SARS-CoV-2 Spike (S) protein, strain …. Kind of experiment: cell-based or functional assay.
Experiment [4] concerns the target SARS-CoV-1 Spike (S) protein, strain SARS, on ExpiCHO cells (SARS-CoV (SARS-CoV-1), strain SARS, UniProt P59594 14-1255). The experiment is described as follows: flow cytometry, ExpiCHO cells expressing SARS-CoV-1 S; % positive cells.
The target of experiment [5] is T2, SARS-CoV-2 Spike (S) protein, strain ….
In experiment [6] the target is T3, His-tagged RBD of SARS-CoV-1 (SARS-CoV-1, UniProt P59594 306-527).
For experiment [7], the target named is T4, His-tagged RBD of SARS-CoV-2 (SARS-CoV-2 BetaCoV/Wuhan-Hu-1/2019, UniProt P0DTC2 331-550).
Experiment [8] has as its target SARS-CoV-2 RBD (produced in house in Expi-CHO cells; residues 331-550 of spike) (SARS-CoV-2 BetaCoV/Wuhan-Hu-1/2019, UniProt P0DTC2 331-550). Kind of experiment: BLI (Octet), antibody on protein A sensors, RBD in solution, global fit. For orientation: BLI is a label-free optical method that tracks binding on a fibre tip over time.
Experiment [9] concerns the target T1, SARS-CoV-1 RBD (Sino Biological). Described as above.
The target in experiment [10] is T3, His-tagged RBD of SARS-CoV-1. The source holds these as a separate data set.
Experiment [11] has as its target T4, His-tagged RBD of SARS-CoV-2. This is another data set of the same source.
For experiment [12], the target named is T2, SARS-CoV-2 Spike (S) protein, strain …. Kind of experiment: cell-based or functional assay. This is another data set of the same source.
Experiment [13] concerns the target T1, SARS-CoV-1 RBD (Sino Biological). The experiment is described as follows: ELISA, antigen coated on the plate, OD 405 nm. This is another data set of the same source.

Like-named read-outs stand apart in the source and are kept apart here.

B1: S310-rIgG1-LS (antibody, V domains shown)
VH: QVQLVQSGAELKKPGSSVKVSCKASGGTFNSYSFNWVRQAPGQGLEWLGGIIPVLGTSNYAQKFQGRVAVTADEFTTTAYMELSSLRSEDTAVYYCATRTYDSSGYRPYYYGLDVWGQGTPVTVSS
VL: QSALTQPASVSGSPGQSITISCTGTSSDVGSYNLVSWYQQRPGKAPELMIYEVTKRPSGLSNRFSGSKSGNTASLTISGLQAEDEADYYCCSYAGSDTVIFGGGTKVTVL
Turning to B1, in experiment [1], the binding result is recorded as “no binding (tested: 5 µg/ml)”.

B2: S304 rIgG1 (antibody, V domains shown)
VH: EVQLVESGGGLVQPGGSLRLSCAASGFTFSSYDMHWVRQTTGKGLEWVSTIGTAGDTYYPDSVKGRFTISREDAKNSLYLQMNSLRAGDTAVYYCARGDSSGYYYYFDYWGQGTLLTVSS
VL: DIQMTQSPSSLSAAVGDRVTITCRASQSIGSYLNWYQQKPGKAPKLLIYAASSLQSGVPSRFSGSGSGTDFTLTISSLQPEDFAIYYCQQSYVSPTYTFGPGTKVDIK
Broadly, the EC50 (read off the curve) is the concentration needed to bring the measured effect to its halfway point. A higher EC50 (read off the curve) goes with lower potency in that assay. What is called EC50 is the concentration that produces a half-maximal response. A high value points to a less potent agent. As a reminder, the Kd is the concentration at which binding is half-saturated. As to B2, the “EC50 (read off the curve)” value in experiment [2] was around 0.1 µg/mL; in experiment [4] it was around 0.01 µg/mL. Moreover, the “IC50, neutralization of SARS-CoV-2pp on DBT-ACE2 cells” value in [3] was around 16.9 µg/mL. Also, in experiment [5], the EC50 amounted to 0.142 µg/mL. The Kd in experiment [6] is 0.869 nM; in [7] it was 4.58 nM; in experiment [8] it was 4.58 nM; in experiment [9], 0.869 nM.

B3: S315 recombinant IgG1 (antibody, V domains shown)
VH: EVQLVESGGGLVQPGGSLRLSCAASGFTFSNYWMTWVRQAPGKGLEWVANIKQDGSEKYYVDSVKGRFTISRDNAKNSLYLQMNSLRAEDTAVYYCARDLWWNDQAHYYGMDVWGQGTTVTVSS
VL: SYELTQPPSVSVSPGQTARITCSGDAFPNQYAYWYQQKPGQAPVMLIYKDSERPSGIPERFFGSSSGTTVTLTIRGVQAEDEADYYCQSADSSGTVFGGGTKLTVL
As for B3, the entries for the “EC50 (read off the curve)” value in experiment [2] and in experiment [4] were around 0.3 µg/mL and around 0.007 µg/mL, respectively. The same molecule showed a concentration for a half-maximal effect (EC50) in [5] of 0.343 µg/mL. Besides, the Kd was below 0.001 nM in experiment [10] and 0.811 nM in experiment [11]. Besides, the “IC50, neutralization of SARS-CoV-2pp on DBT-ACE2 cells” value in experiment [12] is 25.1 µg/mL.

B4: S306-rIgG1-LS (antibody, V domains shown)
VH: QVQLVQSGAEVKKPGASVKVSCKASTYTFTSFGISWVRQAPGQGLEWMGWITTYSGDTNYAQKFQGRVTMTTDTSTNTAYMELRSLRSDDTAVYYCASDYFDSSGYYHSFDYWGQGTLVTVSS
VL: EIVLTQSPDTLSLSPGERATLSCRASQSVSSYLAWYQQRPGQAPRLLIYDASKRATGIPARFSGSGSGTDFTLTISSLEPEDFAVYYCQQRSNWPPGCSFGQGTKVEIK
With B4, in experiment [13], the binding result is reported as “no binding (tested: 5 µg/ml)”.
